Blank lines part the entries; values can stand above or below the molecule they belong to.
Key:
[1] = molecular target: Mesothelin isoform 2 (IsoMSLN) (Homo sapiens (Human)) (UniProt Q13421); experiment: flow cytometry on Lenti-X 293T cells transiently expressing MSLN isoform 2 (EGFP-gated)
[2] = molecular target: MSLN isoform 1 (Mesothelin canonical polypeptide) (Homo sapiens (Human)) (UniProt Q13421); experiment: flow cytometry on Lenti-X 293T cells transiently expressing MSLN isoform 1 (EGFP-gated)
Sequence of MSLN isoform 1 (Mesothelin canonical polypeptide) (Homo sapiens (Human)) (Q13421 other isoform, or with tags, fused parts or gaps limits assumed): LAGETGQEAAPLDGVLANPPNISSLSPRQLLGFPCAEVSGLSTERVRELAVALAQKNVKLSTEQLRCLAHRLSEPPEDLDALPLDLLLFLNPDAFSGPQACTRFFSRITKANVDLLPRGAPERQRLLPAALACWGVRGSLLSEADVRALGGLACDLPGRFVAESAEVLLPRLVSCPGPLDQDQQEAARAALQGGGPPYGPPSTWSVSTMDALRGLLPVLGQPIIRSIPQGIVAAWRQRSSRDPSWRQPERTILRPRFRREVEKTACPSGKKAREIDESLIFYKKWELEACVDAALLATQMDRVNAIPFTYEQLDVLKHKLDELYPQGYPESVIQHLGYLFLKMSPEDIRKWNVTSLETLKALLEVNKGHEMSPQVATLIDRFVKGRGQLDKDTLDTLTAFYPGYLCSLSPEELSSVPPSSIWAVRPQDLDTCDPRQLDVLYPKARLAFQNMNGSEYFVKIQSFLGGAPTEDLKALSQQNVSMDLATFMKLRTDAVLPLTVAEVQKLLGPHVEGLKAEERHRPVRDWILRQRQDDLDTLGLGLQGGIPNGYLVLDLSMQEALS

[3] = molecular target: MSLN isoform 1 (Mesothelin canonical polypeptide) (Homo sapiens (Human), UniProt Q13421 37-598); experiment: flow cytometry on Lenti-X 293T cells transiently expressing MSLN isoform 1
Sequence of MSLN isoform 1 (Mesothelin canonical polypeptide) (Q13421 other isoform, or with tags, fused parts or gaps limits assumed): as above
Excerpt: (§1) FIGS. 13A-13C show detection of cell surface expression of MSLN isoform 1 and 2 on the tumor cell surface by anti-isoMSLN-specific antibodies. FIG. 13A: the binding curve of different MSLN antibody clones in MSLN isoform 1 or isoform 2 overexpressing 293T cells. MSLN isoform 1 or 2 were transiently expressed in Lenti-X 293T cells; 48 hrs after transfection the cells were harvested and stained for different anti-MSLN antibody or mIgG1 isotype control (with different antibody concentration). MSLN-expressing cells were gated based on EGFP expression. The antibody binding MFI is plot along with the antibody concentration. FIG. 13B: flow cytometry staining of NCI H226 and Hela tumor cell lines with different anti-MSLN antibody clones. FIG. 13C: binding curve of increasing concentration of anti-IsoMSLN antibody clones to NCI H226 cells. The positive percentage of MSLN is plotted versus the antibody concentration.
(§2) Cell transfection and flow cytometry. […] 3 days after transfection, the transfected cells were harvested, counted, and wash once with FACS buffer, and resuspended in 100 μl FACS buffer containing […] human FcR blocker (BD Bioscience) per 0.1 million cells for 10 min, 4° C. […] Samples were acquired with NovoCyte 3000 and analyzed by NovoExpress (ACEA Biosciences Inc).

[4] = molecular target: T1, Mesothelin isoform 2 (IsoMSLN) (Homo sapiens (Human), UniProt Q13421 37-598); experiment: flow cytometry on Lenti-X 293T cells transiently expressing MSLN isoform 2 (EGFP-gated)
T1 construct: It was transiently expressed in Lenti-X 293T cells and is endogenous on NCI H226 cells; also called MSLN isoform 2; IsoMSLN2
T1 sequence (Q13421 37-606 limits assumed, form in doubt): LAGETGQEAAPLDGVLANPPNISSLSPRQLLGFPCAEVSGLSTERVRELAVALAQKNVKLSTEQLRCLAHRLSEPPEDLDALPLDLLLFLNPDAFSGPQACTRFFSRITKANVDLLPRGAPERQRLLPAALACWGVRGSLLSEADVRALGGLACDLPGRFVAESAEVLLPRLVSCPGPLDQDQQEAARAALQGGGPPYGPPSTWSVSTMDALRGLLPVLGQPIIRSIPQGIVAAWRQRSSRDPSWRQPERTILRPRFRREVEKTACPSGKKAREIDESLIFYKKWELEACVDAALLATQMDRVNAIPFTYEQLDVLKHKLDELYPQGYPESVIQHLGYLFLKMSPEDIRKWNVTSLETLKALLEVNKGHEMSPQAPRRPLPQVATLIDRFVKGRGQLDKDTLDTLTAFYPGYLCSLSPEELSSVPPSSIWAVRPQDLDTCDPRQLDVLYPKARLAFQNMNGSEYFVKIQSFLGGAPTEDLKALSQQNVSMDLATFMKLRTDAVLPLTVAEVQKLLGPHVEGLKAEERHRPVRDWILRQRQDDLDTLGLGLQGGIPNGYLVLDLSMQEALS
Excerpt: as §1, §2

Sequence of Mesothelin isoform 2 (IsoMSLN) (Homo sapiens (Human)) (Q13421 37-606 limits assumed, form in doubt): as above

EC50 [1]: 0.106 µg/mL
EC50 [2]: 0.152 µg/mL
Molecule: Anti-MSLN mAb clone K1 (antibody)

binding result [3]: no binding
EC50 [4]: 0.073 µg/mL
B1: 1B6 monoclonal antibody (Binding Molecule A) (antibody, V domains shown)
VH: EVKLVESGGGLVKPGGSLKLSCEASGFTFSRYAMSWVRHTPEKRLAWVASITFGGDPYYPDGLKGRFTISRDNTRNILYLQMNSLRSEDTAMYYCVRHESWFAYWGQGTLVTVSA
VL: DVLMTQTPLSLPVSLGEQVSISCRSSQTIVHTDGNIYLEWYLQNPGQSPRLLIYKISNRFSGVPDRFSGSGSGTDFTLKISRVEAEDLGIYYCFQASHVPYTFGGGTKLEIK
notes: also called 1B6 antibody; 1B6 clone

From patent US20260055368A1 (KIROMIC BIOPHARMA, published 2026)
